Source: the supplement of paper PMC5998384

Legend:
HeLa Kyoto [1] = assay: solubility in G1/S (NP-40 vs SDS abundance) (log2 ratio); higher = more soluble; conditions: cell cycle stage: G1/S
HeLa Kyoto [2] = assay: solubility change mitosis vs G1/S (difference of NP-40 vs SDS log2 ratios) (log2 ratio difference); higher = more soluble in mitosis
HeLa Kyoto [3] = assay: melting temperature (median over replicates), in situ; higher = more thermally stable
HeLa Kyoto [4] = assay: thermal stability score vs G1/S (z-score of summed log2 fold changes over temperatures); higher = more thermally stable than in G1/S
[5] = cell cycle stage: early G1 (4.5 h after nocodazole release)
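For melting temperature (median over replicates), in situ in this document: HeLa Kyoto cells synchronized by double thymidine or nocodazole block, proteins quantified by TMT10plex mass spectrometry, three independent biological replicates.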
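For solubility change mitosis vs G1/S (difference of NP-40 vs SDS log2 ratios) in this document: synchronized HeLa Kyoto cells (double thymidine block for G1/S, nocodazole release for mitosis), protein amounts in NP-40 versus SDS lysates quantified by mass spectrometry, three biological replicates.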
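For solubility in G1/S (NP-40 vs SDS abundance) in this document: HeLa Kyoto cells arrested at G1/S by double thymidine block, proteins quantified by TMT10plex mass spectrometry in mild NP-40 versus SDS extracts, three biological replicates.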
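For thermal stability score vs G1/S (z-score of summed log2 fold changes over temperatures) in this document: synchronized HeLa Kyoto cells, proteins quantified by TMT10plex mass spectrometry, three biological replicates, mitosis taken 0.5 h after nocodazole release, G1/S directly after double thymidine block.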

Row | Substance | solubility in G1/S (log2) (HeLa Kyoto [1]) | solubility change mitosis (log2) (HeLa Kyoto [2]) | melting temperature (HeLa Kyoto [3]; cell cycle stage: G1/S) | melting temperature (HeLa Kyoto [3]; cell cycle stage: mitosis) | thermal stability score (HeLa Kyoto [4]; [5]) | thermal stability score (HeLa Kyoto [4]; cell cycle stage: mitosis)
1 | MILNSLSLCYHNKLILAPMVRVGTLPMRLLALDYGADIVYCEELIDLKMIQCKRVVNEVLSTVDFVAPDDRVVFRTCEREQNRVVFQMGTSDAERALAVARLVENDVAGIDVNMGCPKQYSTKGGMGAALLSDPDKIEKILSTLVKGTRRPVTCKIRILPSLEDTLSLVKRIERTGIAAIAVHGRKREERPQHPVSCEVIKAIADTLSIPVIANGGSHDHIQQYSDIEDFRQATAASSVMVARAAMWNPSIFLKEGLRPLEEVMQKYIRYAVQYDNHYTNTKYCLCQMLREQLESPQGRLLHAAQSSREICEAFGLGAFYEETTQELDAQQARLSAKTSEQTGEPAEDTSGVIKMAVKFDRRAYPAQITPKMCLLEWCRREKLAQPVYETVQRPLDRLFSSIVTVAEQKYQSTLWDKSKKLAEQAAAIVCLRSQGLPEGRLGEESPSLHKRKREAPDQDPGGPRAQELAQPGDLCKKPFVALGSGEESPLEGW [DUS2] | -0.0157 | -0.0821 | 50.3 °C | 50.9 °C | 0.209 | 0.349
2 | MESPASSQPASMPQSKGKSKRKKDLRISCMSKPPAPNPTPPRNLDSRTFITIGDRNFEVEADDLVTISELGRGAYGVVEKVRHAQSGTIMAVKRIRATVNSQEQKRLLMDLDINMRTVDCFYTVTFYGALFREGDVWICMELMDTSLDKFYRKVLDKNMTIPEDILGEIAVSIVRALEHLHSKLSVIHRDVKPSNVLINKEGHVKMCDFGISGYLVDSVAKTMDAGCKPYMAPERINPELNQKGYNVKSDVWSLGITMIEMAILRFPYESWGTPFQQLKQVVEEPSPQLPADRFSPEFVDFTAQCLRKNPAERMSYLELMEHPFFTLHKTKKTDIAAFVKEILGEDS [MAP2K3] | -0.00226 | -0.112 | 48.8 °C | 50.1 °C | 1.81 | 2.08
3 | MNEAMATDSPRRPSRCTGGVVVRPQAVTEQSYMESVVTFLQDVVPQAYSGTPLTEEKEKIVWVRFENADLNDTSRNLEFHEIHSTGNEPPLLIMIGYSDGMQVWSIPISGEAQELFSVRHGPIRAARILPAPQFGAQKCDNFAEKRPLLGVCKSIGSSGTSPPYCCVDLYSLRTGEMVKSIQFKTPIYDLHCNKRILVVVLQEKIAAFDSCTFTKKFFVTSCYPCPGPNMNPIALGSRWLAYAENKLIRCHQSRGGACGDNIQSYTATVISAAKTLKSGLTMVGKVVTQLTGTLPSGVTEDDVAIHSNSRRSPLVPGIITVIDTETVGEGQVLVSEDSDSDGIVAHFPAHEKPVCCMAFNTSGMLLVTTDTLGHDFHVFQILTHPWSSSQCAVHHLYTLHRGETEAKVQDICFSHDCRWVVVSTLRGTSHVFPINPYGGQPCVRTHMSPRVVNRMSRFQKSAGLEEIEQELTSKQGGRCSPVPGLSSSPSGSPLHGKLNSQDSYNNFTNNNPGNPRLSPLPSLMVVMPLAQIKQPMTLGTITKRTGPYLFGAGCFSIKAPCKVKPPPQISPSKSMGGEFCVAAIFGTSRSWFANNAGLKREKDQSKQVVVESLYIISCYGTLVEHMMEPRPLSTAPKISDDTPLEMMTSPRASWTLVRTPQWNELQPPFNANHPLLLAADAVQYYQFLLAGLVPPGSPGPITRHGSYDSLASDHSGQEDEEWLSQVEIVTHTGPHRRLWMGPQFQFKTIHPSGQTTVISSSSSVLQSHGPSDTPQPLLDFDTDDLDLNSLRIQPVRSDPVSMPGSSRPVSDRRGVSTVIDAASGTFDRSVTLLEVCGSWPEGFGLRHMSSMEHTEEGLRERLADAMAESPSRDVVGSGTELQREGSIETLSNSSGSTSGSIPRNFDGYRSPLPTNESQPLSLFPTGFP [BCAS3] | -0.0403 | -0.229 | 52.9 °C | 52.2 °C | -0.731 | -1.02
4 | MSGYSSDRDRGRDRGFGAPRFGGSRAGPLSGKKFGNPGEKLVKKKWNLDELPKFEKNFYQEHPDLARRTAQEVETYRRSKEITVRGHNCPKPVLNFYEANFPANVMDVIARQNFTEPTAIQAQGWPVALSGLDMVGVAQTGSGKTLSYLLPAIVHINHQPFLERGDGPICLVLAPTRELAQQVQQVAAEYCRACRLKSTCIYGGAPKGPQIRDLERGVEICIATPGRLIDFLECGKTNLRRTTYLVLDEADRMLDMGFEPQIRKIVDQIRPDRQTLMWSATWPKEVRQLAEDFLKDYIHINIGALELSANHNILQIVDVCHDVEKDEKLIRLMEEIMSEKENKTIVFVETKRRCDELTRKMRRDGWPAMGIHGDKSQQERDWVLNEFKHGKAPILIATDVASRGLDVEDVKFVINYDYPNSSEDYIHRIGRTARSTKTGTAYTFFTPNNIKQVSDLISVLREANQAINPKLLQLVEDRGSGRSRGRGGMKDDRRDRYSAGKRGGFNTFRDRENYDRGYSSLLKRDFGAKTQNGVYSAANYTNGSFGSNFVSAGIQTSFRTGNPTGTYQNGYDSTQQYGSNVPNMHNGMNQQAYAYPATAAAPMIGYPMPTGYSQ [DDX5] | -0.551 | 0.397 | 47.2 °C | 48.4 °C | 3.64 | 11.3
5 | MEETMKLATMEDTVEYCLFLIPDESRDSDKHKEILQKYIERIITRFAPMLVPYIWQNQPFNLKYKPGKGGVPAHMFGVTKFGDNIEDEWFIVYVIKQITKEFPELVARIEDNDGEFLLIEAADFLPKWLDPENSTNRVFFCHGELCIIPAPRKSGAESWLPTTPPTIPQALNIITAHSEKILASESIRAAVNRRIRGYPEKIQASLHRAHCFLPAGIVAVLKQRPRLVAAAVQAFYLRDPIDLRACRVFKTFLPETRIMTSVTFTKCLYAQLVQQRFVPDRRSGYRLPPPSDPQYRAHELGMKLAHGFEILCSKCSPHFSDCKKSLVTASPLWASFLESLKKNDYFKGLIEGSAQYRERLEMAENYFQLSVDWPESSLAMSPGEEILTLLQTIPFDIEDLKKEAANLPPEDDDQWLDLSPDQLDQLLQEAVGKKESESVSKEEKEQNYDLTEVSESMKAFISKVSTHKGAELPREPSEAPITFDADSFLNYFDKILGPRPNESDSDDLDDEDFECLDSDDDLDFETHEPGEEASLKGTLDNLKSYMAQMDQELAHTCISKSFTTRNQVEPVSQTTDNNSDEEDSGTGESVMAPVDVDLNLVSNILESYSSQAGLAGPASNLLQSMGVQLPDNTDHRPTSKPTKN [ECD] | 0.116 | -0.113 | 50.8 °C | 50 °C | 0.346 | 0.595
6 | PPIH | 0.00262 | 0.0864 | 49.9 °C | 49.5 °C | 1.19 | 0.86
7 | MALLCYNRGCGQRFDPETNSDDACTYHPGVPVFHDALKGWSCCKRRTTDFSDFLSIVGCTKGRHNSEKPPEPVKPEVKTTEKKELCELKPKFQEHIIQAPKPVEAIKRPSPDEPMTNLELKISASLKQALDKLKLSSGNEENKKEEDNDEIKIGTSCKNGGCSKTYQGLESLEEVCVYHSGVPIFHEGMKYWSCCRRKTSDFNTFLAQEGCTKGKHMWTKKDAGKKVVPCRHDWHQTGGEVTISVYAKNSLPELSRVEANSTLLNVHIVFEGEKEFDQNVKLWGVIDVKRSYVTMTATKIEITMRKAEPMQWASLELPAAKKQEKQKDATTD [CHORDC1] | 0.0558 | -0.122 | 52 °C | 52.4 °C | -0.00128 | 0.22
8 | MKKASRSVGSVPKVSAISKTQTAEKIKPENSSSASTGGKLVKPGTAASLSKTKSSDDLLAGMAGGVTVTNGVKGKKSTCPSAAPSASAPAMTTVENKSKISTGTASSTKRSTSTGNKESSSTRERLRERTRLNQSKKLPSAGQGANDMALAKRSRSRTATECDVRMSKSKSDNQISDRAALEAKVKDLLTLAKTKDVEILHLRNELRDMRAQLGINEDHSEGDEKSEKETIMAHQPTDVESTLLQLQEQNTAIREELNQLKNENRMLKDRLNALGFSLEQRLDNSEKLFGYQSLSPEITPGNQSDGGGTLTSSVEGSAPGSVEDLLSQDENTLMDHQHSNSMDNLDSECSEVYQPLTSSDDALDAPSSSESEGIPSIERSRKGSSGNASEVSVACLTERIHQMEENQHSTSEELQATLQELADLQQITQELNSENERLGEEKVILMESLCQQSDKLEHFSRQIEYFRSLLDEHHISYVIDEDVKSGRYMELEQRYMDLAENARFEREQLLGVQQHLSNTLKMAEQDNKEAQEMIGALKERSHHMERIIESEQKGKAALAATLEEYKATVASDQIEMNRLKAQLENEKQKVAELYSIHNSGDKSDIQDLLESVRLDKEKAETLASSLQEDLAHTRNDANRLQDAIAKVEDEYRAFQEEAKKQIEDLNMTLEKLRSDLDEKETERSDMKETIFELEDEVEQHRAVKLHDNLIISDLENTVKKLQDQKHDMEREIKTLHRRLREESAEWRQFQADLQTAVVIANDIKSEAQEEIGDLKRRLHEAQEKNEKLTKELEEIKSRKQEEERGRVYNYMNAVERDLAALRQGMGLSRRSSTSSEPTPTVKTLIKSFDSASQVPNPAAAAIPRTPLSPSPMKTPPAAAVSPMQRHSISGPISTSKPLTALSDKRPNYGEIPVQEHLLRTSSASRPASLPRVPAMESAKTLSVSRRSSEEVKRDISAQEGASPASLMAMGTTSPQLSLSSSPTASVTPTTRSRIREERKDPLSALAREYGGSKRNALLKWCQKKTEGYQNIDITNFSSSWNDGLAFCALLHTYLPAHIPYQELNSQDKRRNFMLAFQAAESVGIKSTLDINEMVRTERPDWQNVMLYVTAIYKYFET [SPECC1L] | -0.183 | 0.448 | 50.8 °C | 50.7 °C | 0.147 | -0.333
9 | MAASCLVLLALCLLLPLLLLGGWKRWRRGRAARHVVAVVLGDVGRSPRMQYHALSLAMHGFSVTLLGFCNSKPHDELLQNNRIQIVGLTELQSLAVGPRVFQYGVKVVLQAMYLLWKLMWREPGAYIFLQNPPGLPSIAVCWFVGCLCGSKLVIDWHNYGYSIMGLVHGPNHPLVLLAKWYEKFFGRLSHLNLCVTNAMREDLADNWHIRAVTVYDKPASFFKETPLDLQHRLFMKLGSMHSPFRARSEPEDPVTERSAFTERDAGSGLVTRLRERPALLVSSTSWTEDEDFSILLAALEKFEQLTLDGHNLPSLVCVITGKGPLREYYSRLIHQKHFQHIQVCTPWLEAEDYPLLLGSADLGVCLHTSSSGLDLPMKVVDMFGCCLPVCAVNFKCLHELVKHEENGLVFEDSEELAAQLQMLFSNFPDPAGKLNQFRKNLRESQQLRWDESWVQTVLPLVMDT [ALG1] | -0.369 | -0.125 | 52.4 °C | 52.6 °C | 0.156 | -0.276
